B1: FBXO34 (parent)
chain: ASSVESTLPVLEASSWKKQVSHDF
B2: OAS1 (parent)
chain: YIGTHEYPHFSHRPSTLQAASTPQ

Variants of: B1
Experiment: protein stability index of a GFP-peptide fusion (GPS, HEK-293T) (PSI 1-6); higher = more stable
Details: c terminus: a fixed tail appended
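Also: lentivirally expressed fusions sorted by FACS into six bins by GFP to DsRed ratio, PSI derived from sequencing read proportions per bin multiplied by bin number.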

Protein stability index: each site, then its substitutions
S3: Q 2.88, P 3.31, V 2.49, H 3.38, I 2.69, N 3.07, T 3.22, F 2.38, E 3.72, W 2.02, K 2.56, A 1.86, Y 2.46, L 2.62, G 3.27, M 2.63, D 3.29, C 2.19
V4: F 2.1, E 3.67, C 2.45, D 2.4, H 3.39, G 3.15, A 3.39
A1: N 2.9, P 2.64, Q 2.44, E 2.83, L 3.35, R 2.97, S 3.36, Y 1.78, I 1.95, C 2.1, M 2.71, K 2.1, T 2.79, F 2.11, G 2.99, D 3.32, V 2.27
S2: I 2.26, N 2.58, F 1.92, T 3.39, H 2.4, A 2.81, L 1.47, G 2.81, C 1.85, K 3.04, W 2.56, D 3.18, E 3.94, V 2.92, R 2.8, Y 2.28, P 3.46, Q 3.09

Variants of: B2
Experiment: as above
Details: c terminus: a fixed tail appended

Protein stability index of substitutions, site by site:
H9: A 1.87, K 1.94, G 1.95, S 2.09, N 2.4, W 3.41, Y 2.83, P 1.44, M 2.33, I 2.18, T 2.09, F 2.2, E 3.17, C 1.48
T16: E 2.46, L 2.22, Y 1.98, R 2.4, D 2.13, P 2.14, G 1.62, I 1.6, N 1.62, F 1.92, Q 2.3, C 1.68, M 1.42, V 1.73, H 2.02
E6: N 2.18, R 1.61, M 1.46, V 1.88, G 1.81, A 2, T 2.14, Q 1.68, Y 1.89, L 2.99
Q24: K 1.81, W 2.25, D 2.06, M 1.87, R 1.86, S 1.94, I 1.92, E 2.25, G 2.2, T 2.04, A 1.66, F 1.77, N 2.07
Q18: V 1.99, I 1.94, D 1.71, Y 2.37, N 2.34, L 2.08, K 2.04, A 2.85, T 1.9, P 1.81, W 2.75
T22: V 1.93, S 1.38, P 2.17, G 1.59, R 1.68, A 2.51, W 1.53, L 1.78, I 2.13, Q 2.31, F 1.93, D 2.64
F10: R 2.19, G 2.88, N 2.43, P 2.06, D 3.14, I 2.27, C 2.24, T 2.48
P23: E 2.37, A 2.14, Y 1.75, F 1.72, I 2.74, G 1.53, V 1.81, N 2.54
L17: N 2.42, R 2, Q 2.29, T 1.98, P 2.5, F 1.83, G 2.17, E 2.06, S 2.12, C 2.14, D 2.41, V 2.3, Y 2.14
H12: R 2.55, Q 2.23, T 2.03, C 2.64, D 2.49, Y 1.92, F 2.21, V 1.93, W 1.46
P8: E 2.79, V 2, C 2.12, F 2.44, Q 1.95, W 1.74, R 1.63, H 2.45, L 1.91, Y 1.92, T 1.54, D 2.35, K 2.08
R13: I 1.92, W 3.13, G 1.92, V 2.67, Y 2.09, K 2.12, L 1.66, H 2.29, N 1.8, E 2.19, D 2.52
A20: H 1.64, D 1.75, W 2.43, G 1.88, L 2.39, C 1.84, M 1.93, R 1.82, V 1.79, S 2.11, F 1.73
S11: Y 3.04, N 2.31, W 2.76, G 2.14, M 1.93, P 2.44, H 1.98, F 3.55, D 2.64, T 1.76, R 2.09
G3: I 2.6, Q 2.32, A 2.11, F 2.35, C 1.97, K 2.48, D 1.75, R 2.07, V 1.95
H5: P 2.45, I 1.93, T 2.3, C 1.75, Q 2.38, K 2.47, D 2.52, A 1.72, N 2.03, F 2.28, L 2.12, S 1.94
S15: M 1.6, R 1.96, N 2.24, D 2.1, T 1.94, G 1.79, I 1.85, Q 1.99, W 3.2, Y 1.79, A 2.13
A19: F 1.99, W 1.28, N 1.9, P 2.11, Y 2.42, L 1.85, C 2.07, Q 2.04, T 1.72, G 1.98, D 2.3, R 2.29, K 1.68, S 1.9
P14: M 1.74, G 2.21, R 1.9, W 2.81, S 1.64, C 1.78, A 1.81, K 2.13, Y 2.09, F 1.49
S21: F 1.68, G 2.23, W 2.42, D 1.89, P 1.67, Y 1.95, Q 2, C 2.77, T 2.07, H 2, R 2
Y7: E 3.16, C 2.49, R 2.12, T 2.3, H 2.18, M 2.37, I 2.44, L 2.06, V 2.12, K 3.34, Q 2.65, F 1.68, A 2.23
T4: H 1.95, E 2.55, P 2.34, F 2.11, W 2.89, I 1.84, R 1.7, A 1.86, Q 1.89, C 2.12, Y 1.84, L 1.81, D 2.56
Y1: W 2.73, T 4.07, P 4.32, G 4.34, S 4, C 3.33, I 3.58, V 3.64, E 4.08, D 4.09
I2: V 2.61, W 2.66, T 2.17, M 2.92, P 2.47, G 3.15, A 2.29, N 3.29, Q 2.59, Y 3.27, C 1.87, S 2.49
